Reference: PMC9482650, “Quantitative fragmentomics allow affinity mapping of interactomes” (Nature Communications, 2022)

Experiments:
Test in all cases: holdup assay
Design in all cases: key: below the threshold = too weak to quantify, mostly under pKd 3.1 to 4
APBA1_2, Q02410 = molecular target: T1, APBA1_2, Q02410
T1 sequence (Q02410 742-832, limits assumed, looked up): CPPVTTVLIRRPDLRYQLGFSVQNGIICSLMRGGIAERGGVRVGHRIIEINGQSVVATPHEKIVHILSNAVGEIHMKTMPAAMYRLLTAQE

CASK, O14936 = molecular target: CASK, O14936
DLG1_1, Q12959 = molecular target: DLG1_1, Q12959
DLG4_3, P78352 = molecular target: DLG4_3, P78352
FRMPD2_1, Q68DX3 = molecular target: FRMPD2_1, Q68DX3
FRMPD2_2, Q68DX3 = molecular target: FRMPD2_2, Q68DX3
FRMPD2_3, Q68DX3 = molecular target: FRMPD2_3, Q68DX3
GIPC2, Q8TF65 = molecular target: GIPC2, Q8TF65
GORASP1, Q9BQQ3 = molecular target: GORASP1, Q9BQQ3
GRIP1_3, Q9Y3R0 = molecular target: T2, GRIP1_3, Q9Y3R0
T2 sequence (Q9Y3R0 247-346, limits assumed, looked up): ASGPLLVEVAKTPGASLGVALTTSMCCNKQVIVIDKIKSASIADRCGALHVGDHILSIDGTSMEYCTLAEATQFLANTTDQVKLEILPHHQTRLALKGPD

GRIP1_4, Q9Y3R0 = molecular target: T3, GRIP1_4, Q9Y3R0
T3 sequence (Q9Y3R0 467-571, limits assumed, looked up): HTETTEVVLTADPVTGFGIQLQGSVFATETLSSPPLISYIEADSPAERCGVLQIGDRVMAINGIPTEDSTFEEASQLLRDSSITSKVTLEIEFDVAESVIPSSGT

GRIP2_6, Q9C0E4 = molecular target: GRIP2_6, Q9C0E4
GRIP2_7, Q9C0E4 = molecular target: GRIP2_7, Q9C0E4
Inadl_2, Q8NI35 = molecular target: Inadl_2, Q8NI35
LAP2, Q96RT1 = molecular target: LAP2, Q96RT1
LIN7B, Q9HAP6 = molecular target: T4, LIN7B, Q9HAP6
T4 sequence (Q9HAP6 88-185, limits assumed, looked up): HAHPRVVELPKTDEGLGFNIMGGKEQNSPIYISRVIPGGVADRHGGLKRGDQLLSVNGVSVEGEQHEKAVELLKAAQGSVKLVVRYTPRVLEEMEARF

LNX1_1, Q8TBB1 = molecular target: LNX1_1, Q8TBB1
LNX1_3, Q8TBB1 = molecular target: LNX1_3, Q8TBB1
MAGI1_2, Q96QZ7 = molecular target: MAGI1_2, Q96QZ7
MAGI2_4, Q86UL8 = molecular target: MAGI2_4, Q86UL8
MPP6, Q9NZW5 = molecular target: T5, MPP6, Q9NZW5
T5 sequence (Q9NZW5 125-219, limits assumed, looked up): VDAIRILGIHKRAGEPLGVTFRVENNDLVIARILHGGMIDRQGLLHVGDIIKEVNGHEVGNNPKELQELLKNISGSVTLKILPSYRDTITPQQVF

MPP7, Q5T2T1 = molecular target: T6, MPP7, Q5T2T1
T6 sequence (Q5T2T1 134-230, limits assumed, looked up): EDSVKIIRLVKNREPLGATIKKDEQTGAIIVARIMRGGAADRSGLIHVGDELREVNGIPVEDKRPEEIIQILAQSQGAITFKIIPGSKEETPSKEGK

NHERF3_4, Q5T2W1 = molecular target: T7, NHERF3_4, Q5T2W1
T7 sequence (Q5T2W1 373-468, limits assumed, looked up): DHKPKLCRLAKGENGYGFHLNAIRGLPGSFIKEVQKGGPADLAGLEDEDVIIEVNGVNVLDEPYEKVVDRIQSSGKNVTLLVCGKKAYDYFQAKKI

PCLO, Q9Y6V0 = molecular target: T8, PCLO, Q9Y6V0
T8 sequence (Q9Y6V0 4491-4600, limits assumed, looked up): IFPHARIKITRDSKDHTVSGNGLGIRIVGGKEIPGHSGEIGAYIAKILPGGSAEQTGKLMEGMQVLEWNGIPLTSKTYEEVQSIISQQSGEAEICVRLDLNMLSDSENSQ

PDZD2_2, O15018 = molecular target: T9, PDZD2_2, O15018
T9 sequence (O15018 329-429, limits assumed, looked up): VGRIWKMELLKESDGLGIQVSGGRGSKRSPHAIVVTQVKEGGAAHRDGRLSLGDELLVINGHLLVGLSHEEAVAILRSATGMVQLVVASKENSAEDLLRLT

PDZD7_3, Q9H5P4 = molecular target: T10, PDZD7_3, Q9H5P4
T10 sequence (Q9H5P4 857-944, limits assumed, looked up): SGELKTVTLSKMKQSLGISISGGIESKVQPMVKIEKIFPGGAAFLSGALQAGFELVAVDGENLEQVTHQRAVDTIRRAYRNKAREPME

RADIL, Q96JH8 = molecular target: T11, RADIL, Q96JH8
T11 sequence (Q96JH8 971-1071, limits assumed, looked up): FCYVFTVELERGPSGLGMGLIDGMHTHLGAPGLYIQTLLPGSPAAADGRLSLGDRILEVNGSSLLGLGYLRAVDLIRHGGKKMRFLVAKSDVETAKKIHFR

[1] = plain residues with an end cap or a label only (N-terminal biotin on a linker: ahx)
[2] = plain residues with an end cap or a label only (N-terminal biotin on a linker: ado-ado)
[3] = plain residues with an end cap or a label only (N-terminal biotin on a linker: ttds)

Sequence of Inadl_2, Q8NI35 (Q8NI35 238-335): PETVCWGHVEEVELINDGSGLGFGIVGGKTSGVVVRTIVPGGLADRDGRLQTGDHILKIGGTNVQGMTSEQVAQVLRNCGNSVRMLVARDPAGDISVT
Sequence of FRMPD2_2, Q68DX3 (Q68DX3 944-1038): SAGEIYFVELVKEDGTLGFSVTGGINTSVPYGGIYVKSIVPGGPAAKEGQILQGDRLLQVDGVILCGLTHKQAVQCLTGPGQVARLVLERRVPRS
Sequence of CASK, O14936 (O14936 487-570): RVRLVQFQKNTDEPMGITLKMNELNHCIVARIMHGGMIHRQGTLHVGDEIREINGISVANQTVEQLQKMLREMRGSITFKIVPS
Sequence of GRIP2_6, Q9C0E4 (Q9C0E4 648-740): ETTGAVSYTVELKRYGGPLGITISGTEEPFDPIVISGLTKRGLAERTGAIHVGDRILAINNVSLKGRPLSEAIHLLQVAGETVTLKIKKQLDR
Sequence of MAGI1_2, Q96QZ7 (Q96QZ7 456-580): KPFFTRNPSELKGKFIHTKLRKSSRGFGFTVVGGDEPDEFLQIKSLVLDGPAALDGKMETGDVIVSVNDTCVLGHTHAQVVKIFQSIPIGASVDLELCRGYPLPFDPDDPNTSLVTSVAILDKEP
Sequence of LAP2, Q96RT1 (Q96RT1 other isoform, or with tags, fused parts or gaps): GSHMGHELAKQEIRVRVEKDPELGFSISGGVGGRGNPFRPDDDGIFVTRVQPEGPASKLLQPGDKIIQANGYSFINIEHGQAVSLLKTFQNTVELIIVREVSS
Sequence of MAGI2_4, Q86UL8 (Q86UL8 772-865): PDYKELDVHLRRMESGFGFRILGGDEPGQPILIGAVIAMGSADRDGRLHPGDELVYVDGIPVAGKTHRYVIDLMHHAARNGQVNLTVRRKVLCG
Sequence of LNX1_3, Q8TBB1 (Q8TBB1 500-596): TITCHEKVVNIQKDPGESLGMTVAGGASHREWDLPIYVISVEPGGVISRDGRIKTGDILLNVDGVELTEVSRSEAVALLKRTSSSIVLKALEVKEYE
Sequence of LNX1_1, Q8TBB1 (Q8TBB1 261-371): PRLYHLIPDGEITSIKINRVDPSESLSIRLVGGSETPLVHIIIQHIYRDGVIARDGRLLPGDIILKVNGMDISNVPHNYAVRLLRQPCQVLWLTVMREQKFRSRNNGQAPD
Sequence of GIPC2, Q8TF65 (Q8TF65 112-203): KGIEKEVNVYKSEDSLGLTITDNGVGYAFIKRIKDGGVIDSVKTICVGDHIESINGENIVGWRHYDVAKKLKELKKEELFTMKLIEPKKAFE
Sequence of GORASP1, Q9BQQ3 (Q9BQQ3 1-208): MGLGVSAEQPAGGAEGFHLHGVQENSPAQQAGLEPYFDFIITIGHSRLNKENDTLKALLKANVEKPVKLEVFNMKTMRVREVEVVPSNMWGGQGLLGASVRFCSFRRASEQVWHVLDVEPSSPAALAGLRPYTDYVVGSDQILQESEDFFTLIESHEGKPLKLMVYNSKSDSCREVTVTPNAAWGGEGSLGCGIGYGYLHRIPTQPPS
Sequence of FRMPD2_3, Q68DX3 (Q68DX3 1073-1166): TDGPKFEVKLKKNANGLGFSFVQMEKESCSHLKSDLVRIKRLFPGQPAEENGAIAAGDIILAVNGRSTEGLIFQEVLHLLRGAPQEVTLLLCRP
Sequence of DLG4_3, P78352 (P78352 306-403): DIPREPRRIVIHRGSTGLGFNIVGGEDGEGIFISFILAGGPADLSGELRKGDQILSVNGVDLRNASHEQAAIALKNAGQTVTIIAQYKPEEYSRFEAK
Sequence of FRMPD2_1, Q68DX3 (Q68DX3 770-861): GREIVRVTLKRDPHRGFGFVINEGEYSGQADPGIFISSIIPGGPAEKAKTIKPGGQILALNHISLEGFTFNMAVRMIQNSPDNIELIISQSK
Sequence of GRIP2_7, Q9C0E4 (Q9C0E4 934-1023): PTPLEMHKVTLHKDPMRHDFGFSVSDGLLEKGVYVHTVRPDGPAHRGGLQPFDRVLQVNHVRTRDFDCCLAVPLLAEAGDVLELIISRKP

## TIVSWPGTFL [LNX1, Q8TBB1]
APBA1_2, Q02410; [1]
  pKd: 4.33
CASK, O14936; [1]
  pKd: below the threshold
DLG1_1, Q12959; [1]
  pKd: below the threshold
DLG4_3, P78352; [1]
  pKd: below the threshold
FRMPD2_1, Q68DX3; [1]
  pKd: below the threshold
FRMPD2_2, Q68DX3; [1]
  pKd: 3.58
FRMPD2_3, Q68DX3; [1]
  pKd: below the threshold
GIPC2, Q8TF65; [1]
  pKd: below the threshold
GORASP1, Q9BQQ3; [1]
  pKd: below the threshold
GRIP1_3, Q9Y3R0; [1]
  pKd: below the threshold
GRIP1_4, Q9Y3R0; [1]
  pKd: below the threshold
GRIP2_6, Q9C0E4; [1]
  pKd: below the threshold
GRIP2_7, Q9C0E4; [1]
  pKd: below the threshold
Inadl_2, Q8NI35; [1]
  pKd: below the threshold
LAP2, Q96RT1; [1]
  pKd: below the threshold
LIN7B, Q9HAP6; [1]
  pKd: 3.48
LNX1_1, Q8TBB1; [1]
  pKd: 4.09
LNX1_3, Q8TBB1; [1]
  pKd: below the threshold
MAGI1_2, Q96QZ7; [1]
  pKd: below the threshold
MAGI2_4, Q86UL8; [1]
  pKd: below the threshold
MPP6, Q9NZW5; [1]
  pKd: below the threshold
MPP7, Q5T2T1; [1]
  pKd: below the threshold
NHERF3_4, Q5T2W1; [1]
  pKd: below the threshold
PCLO, Q9Y6V0; [1]
  pKd: below the threshold
PDZD2_2, O15018; [1]
  pKd: 4.03
PDZD7_3, Q9H5P4; [1]
  pKd: 4.13
RADIL, Q96JH8; [1]
  pKd: 4.45

## GKKSVKHSKI [ACOT6, Q3I5F7]
APBA1_2, Q02410; [2]
  pKd: below the threshold
CASK, O14936; [2]
  pKd: below the threshold
DLG1_1, Q12959; [2]
  pKd: below the threshold
DLG4_3, P78352; [2]
  pKd: 3.68
FRMPD2_1, Q68DX3; [2]
  pKd: below the threshold
FRMPD2_2, Q68DX3; [2]
  pKd: below the threshold
FRMPD2_3, Q68DX3; [2]
  pKd: below the threshold
GIPC2, Q8TF65; [2]
  pKd: below the threshold
GORASP1, Q9BQQ3; [2]
  pKd: below the threshold
GRIP1_3, Q9Y3R0; [2]
  pKd: below the threshold
GRIP1_4, Q9Y3R0; [2]
  pKd: below the threshold
GRIP2_6, Q9C0E4; [2]
  pKd: below the threshold
GRIP2_7, Q9C0E4; [2]
  pKd: below the threshold
Inadl_2, Q8NI35; [2]
  pKd: below the threshold
LAP2, Q96RT1; [2]
  pKd: below the threshold
LIN7B, Q9HAP6; [2]
  pKd: below the threshold
LNX1_1, Q8TBB1; [2]
  pKd: below the threshold
LNX1_3, Q8TBB1; [2]
  pKd: below the threshold
MAGI1_2, Q96QZ7; [2]
  pKd: below the threshold
MAGI2_4, Q86UL8; [2]
  pKd: below the threshold
MPP6, Q9NZW5; [2]
  pKd: 3.5
MPP7, Q5T2T1; [2]
  pKd: below the threshold
NHERF3_4, Q5T2W1; [2]
  pKd: below the threshold
PCLO, Q9Y6V0; [2]
  pKd: below the threshold
PDZD2_2, O15018; [2]
  pKd: 4.03
PDZD7_3, Q9H5P4; [2]
  pKd: 4.58
RADIL, Q96JH8; [2]
  pKd: below the threshold

## NQLAWFDTDL [CTNNB1, P35222]
APBA1_2, Q02410; [3]
  pKd: below the threshold
CASK, O14936; [3]
  pKd: below the threshold
DLG1_1, Q12959; [3]
  pKd: below the threshold
DLG4_3, P78352; [3]
  pKd: below the threshold
FRMPD2_1, Q68DX3; [3]
  pKd: below the threshold
FRMPD2_2, Q68DX3; [3]
  pKd: below the threshold
FRMPD2_3, Q68DX3; [3]
  pKd: below the threshold
GIPC2, Q8TF65; [3]
  pKd: 3.8
GORASP1, Q9BQQ3; [3]
  pKd: below the threshold
GRIP1_3, Q9Y3R0; [3]
  pKd: below the threshold
GRIP1_4, Q9Y3R0; [3]
  pKd: below the threshold
GRIP2_6, Q9C0E4; [3]
  pKd: below the threshold
GRIP2_7, Q9C0E4; [3]
  pKd: below the threshold
Inadl_2, Q8NI35; [3]
  pKd: below the threshold
LAP2, Q96RT1; [3]
  pKd: 4.53
LIN7B, Q9HAP6; [3]
  pKd: below the threshold
LNX1_1, Q8TBB1; [3]
  pKd: 3.47
LNX1_3, Q8TBB1; [3]
  pKd: below the threshold
MAGI1_2, Q96QZ7; [3]
  pKd: below the threshold
MAGI2_4, Q86UL8; [3]
  pKd: below the threshold
MPP6, Q9NZW5; [3]
  pKd: below the threshold
MPP7, Q5T2T1; [3]
  pKd: below the threshold
NHERF3_4, Q5T2W1; [3]
  pKd: below the threshold
PCLO, Q9Y6V0; [3]
  pKd: below the threshold
PDZD2_2, O15018; [3]
  pKd: below the threshold
PDZD7_3, Q9H5P4; [3]
  pKd: below the threshold
RADIL, Q96JH8; [3]
  pKd: below the threshold

## GIFPTLTSPL [SHROOM3, Q8TF72]
APBA1_2, Q02410; [1]
  pKd: below the threshold
CASK, O14936; [1]
  pKd: below the threshold
DLG1_1, Q12959; [1]
  pKd: below the threshold
DLG4_3, P78352; [1]
  pKd: below the threshold
FRMPD2_1, Q68DX3; [1]
  pKd: below the threshold
FRMPD2_2, Q68DX3; [1]
  pKd: below the threshold
FRMPD2_3, Q68DX3; [1]
  pKd: below the threshold
GIPC2, Q8TF65; [1]
  pKd: below the threshold
GORASP1, Q9BQQ3; [1]
  pKd: below the threshold
GRIP1_3, Q9Y3R0; [1]
  pKd: below the threshold
GRIP1_4, Q9Y3R0; [1]
  pKd: below the threshold
GRIP2_6, Q9C0E4; [1]
  pKd: below the threshold
GRIP2_7, Q9C0E4; [1]
  pKd: below the threshold
Inadl_2, Q8NI35; [1]
  pKd: below the threshold
LAP2, Q96RT1; [1]
  pKd: below the threshold
LIN7B, Q9HAP6; [1]
  pKd: below the threshold
LNX1_1, Q8TBB1; [1]
  pKd: below the threshold
LNX1_3, Q8TBB1; [1]
  pKd: below the threshold
MAGI1_2, Q96QZ7; [1]
  pKd: below the threshold
MAGI2_4, Q86UL8; [1]
  pKd: below the threshold
MPP6, Q9NZW5; [1]
  pKd: below the threshold
MPP7, Q5T2T1; [1]
  pKd: below the threshold
NHERF3_4, Q5T2W1; [1]
  pKd: 3.95
PCLO, Q9Y6V0; [1]
  pKd: below the threshold
PDZD2_2, O15018; [1]
  pKd: 3.48
PDZD7_3, Q9H5P4; [1]
  pKd: 3.51
RADIL, Q96JH8; [1]
  pKd: below the threshold
